Measurements from IntAct's records for PubMed 21209328.

B1: PEP-dependent dihydroxyacetone kinase, ADP-binding subunit DhaL (Escherichia coli (strain K12)), P76014 (parent)
chain: MSLSRTQIVNWLTRCGDIFSTESEYLTGLDREIGDADHGLNMNRGFSKVVEKLPAIADKDIGFILKNTGMTLLSSVGGASGPLFGTFFIRAAQATQARQSLTLEELYQMFRDGADGVISRGKAEPGDKTMCDVWVPVVESLRQSSEQNLSVPVALEAASSIAESAAQSTITMQARKGRASYLGERSIGHQDPGATSVMFMMQMLALAAKE
partner: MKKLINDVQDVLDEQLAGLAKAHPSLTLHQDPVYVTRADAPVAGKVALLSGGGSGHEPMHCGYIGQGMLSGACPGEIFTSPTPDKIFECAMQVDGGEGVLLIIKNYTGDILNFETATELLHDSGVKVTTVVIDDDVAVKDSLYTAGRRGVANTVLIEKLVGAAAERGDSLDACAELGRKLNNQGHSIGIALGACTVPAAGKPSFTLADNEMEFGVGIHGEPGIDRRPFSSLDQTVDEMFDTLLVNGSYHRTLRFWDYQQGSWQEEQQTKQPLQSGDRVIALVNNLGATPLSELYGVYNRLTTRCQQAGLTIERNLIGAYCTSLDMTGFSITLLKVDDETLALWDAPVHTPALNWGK

Variants of: B1
Settings: with dhak_ecoli dhaK

effect of a mutation on the interaction	Variant
disrupting interaction strength	R178E
